Measurements from paper PMC3378891.

T1: FANCI (chicken, UniProt B0I564 1-1338)
T1 sequence: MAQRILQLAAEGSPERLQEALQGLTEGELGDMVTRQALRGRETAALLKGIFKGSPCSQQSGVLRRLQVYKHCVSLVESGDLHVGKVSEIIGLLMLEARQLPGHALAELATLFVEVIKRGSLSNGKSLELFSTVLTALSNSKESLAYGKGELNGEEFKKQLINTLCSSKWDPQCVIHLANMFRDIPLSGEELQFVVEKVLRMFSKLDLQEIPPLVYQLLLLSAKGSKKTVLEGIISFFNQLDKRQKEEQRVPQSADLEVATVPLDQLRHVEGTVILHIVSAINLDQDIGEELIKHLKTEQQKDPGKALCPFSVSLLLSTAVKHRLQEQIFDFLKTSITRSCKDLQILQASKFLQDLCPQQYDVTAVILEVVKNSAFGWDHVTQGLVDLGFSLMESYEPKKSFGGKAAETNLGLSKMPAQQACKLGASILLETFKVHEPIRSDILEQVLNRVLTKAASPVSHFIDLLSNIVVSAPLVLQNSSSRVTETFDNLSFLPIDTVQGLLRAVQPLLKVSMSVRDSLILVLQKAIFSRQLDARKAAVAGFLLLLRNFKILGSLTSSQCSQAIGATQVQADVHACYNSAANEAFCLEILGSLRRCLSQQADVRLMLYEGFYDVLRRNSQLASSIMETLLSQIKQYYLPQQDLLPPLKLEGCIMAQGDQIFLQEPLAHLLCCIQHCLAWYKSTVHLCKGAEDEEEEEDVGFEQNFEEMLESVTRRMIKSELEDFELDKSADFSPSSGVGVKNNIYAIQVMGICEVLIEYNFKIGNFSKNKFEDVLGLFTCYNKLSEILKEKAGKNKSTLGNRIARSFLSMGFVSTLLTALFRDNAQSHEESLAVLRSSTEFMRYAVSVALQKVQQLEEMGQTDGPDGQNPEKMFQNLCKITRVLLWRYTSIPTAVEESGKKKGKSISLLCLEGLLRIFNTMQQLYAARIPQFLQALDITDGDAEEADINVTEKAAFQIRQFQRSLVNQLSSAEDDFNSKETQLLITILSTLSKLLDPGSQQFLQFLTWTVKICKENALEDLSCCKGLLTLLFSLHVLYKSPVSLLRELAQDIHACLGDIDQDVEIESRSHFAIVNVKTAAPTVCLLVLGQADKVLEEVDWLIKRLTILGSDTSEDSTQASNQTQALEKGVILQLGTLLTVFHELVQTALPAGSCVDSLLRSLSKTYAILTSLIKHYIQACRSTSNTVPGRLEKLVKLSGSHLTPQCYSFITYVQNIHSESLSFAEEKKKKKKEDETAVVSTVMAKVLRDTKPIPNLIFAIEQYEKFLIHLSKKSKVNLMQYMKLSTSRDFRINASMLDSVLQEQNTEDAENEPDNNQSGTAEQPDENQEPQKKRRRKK

T2: GST-FANCL (chicken, UniProt Q3MUH5 1-373)
T2 sequence: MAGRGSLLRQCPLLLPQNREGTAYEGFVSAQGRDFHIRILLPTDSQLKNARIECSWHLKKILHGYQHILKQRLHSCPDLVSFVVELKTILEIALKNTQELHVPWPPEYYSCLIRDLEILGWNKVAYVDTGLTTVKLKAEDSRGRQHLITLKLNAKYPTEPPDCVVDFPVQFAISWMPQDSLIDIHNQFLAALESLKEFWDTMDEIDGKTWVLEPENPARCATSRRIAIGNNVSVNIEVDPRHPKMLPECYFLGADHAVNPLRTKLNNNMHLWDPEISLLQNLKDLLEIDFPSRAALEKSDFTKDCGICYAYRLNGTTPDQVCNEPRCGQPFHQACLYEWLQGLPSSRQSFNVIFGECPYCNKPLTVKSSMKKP

B1: synthetic Holliday junction (HJ) (structured_DNA)
DNA 1: ATCGATGTCTCTAGACAGCTGCTCAGGATTGATCTGTAATGGCCTGGGA
DNA 2: GTCCCAGGCCATTACAGATCAATCCTGAGCATGTTTACCAAGCGCATTG
DNA 3: TGATCACTTGCTAGCGTCGCAATCCTGAGCAGCTGTCTAGAGACATCGA
DNA 4: CCAATGCGCTTGGTAAACATGCTCAGGATTGCGACGCTAGCAAGTGATC
B2: 5' flapped DNA (structured_DNA)
DNA 1: ATCGATGTCTCTAGACAGCTGCTCAGGATTGATCTGTAATGGCCTGGGA
DNA 2: GTCCCAGGCCATTACAGATCAATCCTGAGCATGTTTACCAAGCGCATTG
DNA 3: CAATGCGCTTGGTAAACA

Assays:
Experiment in all cases: EMSA
[1] = biological target: T1, FANCI
[2] = biological target: FANCI;FANCD2 (chicken;chicken, UniProt B0I564;Q68Y81 1-1338;1-1439, |)
FANCI;FANCD2, sequence (Q68Y81 whole entry, one chain of several): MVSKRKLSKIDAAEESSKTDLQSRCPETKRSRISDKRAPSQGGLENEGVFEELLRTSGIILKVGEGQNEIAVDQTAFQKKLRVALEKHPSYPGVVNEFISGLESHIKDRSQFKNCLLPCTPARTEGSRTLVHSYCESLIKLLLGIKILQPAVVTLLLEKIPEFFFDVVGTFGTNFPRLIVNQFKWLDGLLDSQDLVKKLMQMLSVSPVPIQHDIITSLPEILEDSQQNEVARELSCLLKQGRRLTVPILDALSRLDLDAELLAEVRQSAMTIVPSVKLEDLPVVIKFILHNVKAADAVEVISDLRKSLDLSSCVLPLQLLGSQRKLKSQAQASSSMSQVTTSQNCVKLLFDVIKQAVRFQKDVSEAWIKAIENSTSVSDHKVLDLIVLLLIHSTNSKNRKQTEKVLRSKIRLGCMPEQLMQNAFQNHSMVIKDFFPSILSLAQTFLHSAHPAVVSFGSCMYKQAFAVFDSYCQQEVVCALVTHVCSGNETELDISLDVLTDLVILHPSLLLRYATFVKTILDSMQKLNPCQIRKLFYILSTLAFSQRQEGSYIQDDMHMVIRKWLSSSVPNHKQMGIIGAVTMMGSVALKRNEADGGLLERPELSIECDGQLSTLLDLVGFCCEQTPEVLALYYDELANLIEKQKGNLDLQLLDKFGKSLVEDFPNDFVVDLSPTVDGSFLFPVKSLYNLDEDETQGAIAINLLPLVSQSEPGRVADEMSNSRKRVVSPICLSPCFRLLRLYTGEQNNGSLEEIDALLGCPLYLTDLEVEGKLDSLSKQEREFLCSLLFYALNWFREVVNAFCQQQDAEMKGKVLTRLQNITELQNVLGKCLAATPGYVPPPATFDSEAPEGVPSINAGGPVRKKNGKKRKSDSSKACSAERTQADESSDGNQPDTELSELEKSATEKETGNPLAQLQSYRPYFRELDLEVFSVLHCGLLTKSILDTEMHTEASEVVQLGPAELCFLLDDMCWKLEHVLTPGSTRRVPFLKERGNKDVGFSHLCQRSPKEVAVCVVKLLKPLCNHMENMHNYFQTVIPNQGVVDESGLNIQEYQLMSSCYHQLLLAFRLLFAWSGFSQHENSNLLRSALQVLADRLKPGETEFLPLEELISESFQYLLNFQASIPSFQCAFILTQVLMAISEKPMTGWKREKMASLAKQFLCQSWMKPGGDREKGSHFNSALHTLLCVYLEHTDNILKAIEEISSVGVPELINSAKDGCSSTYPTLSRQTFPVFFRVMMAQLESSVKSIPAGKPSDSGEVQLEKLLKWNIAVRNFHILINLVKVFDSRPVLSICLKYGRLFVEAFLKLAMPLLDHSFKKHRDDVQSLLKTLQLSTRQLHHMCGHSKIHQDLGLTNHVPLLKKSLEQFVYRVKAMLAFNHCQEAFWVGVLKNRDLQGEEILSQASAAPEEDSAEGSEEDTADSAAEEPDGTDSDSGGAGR

[3] = biological target: UBE2T (human, UniProt Q9NPD8 1-197)
UBE2T, sequence (Q9NPD8 whole entry): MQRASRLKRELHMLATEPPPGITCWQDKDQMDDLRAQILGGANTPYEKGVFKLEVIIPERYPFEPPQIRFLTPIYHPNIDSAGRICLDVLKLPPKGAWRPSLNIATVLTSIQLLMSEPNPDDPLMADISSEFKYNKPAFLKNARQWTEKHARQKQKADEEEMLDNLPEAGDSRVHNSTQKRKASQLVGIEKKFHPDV

[4] = biological target: T2, GST-FANCL

Binder	binding result [1]	binding result [2]	binding result [3]	binding result [4]
B1	binds	–	–	–
B2	–	binds	no binding	no binding
